Among the data in patent publication US20160053014A1 (SORRENTO THERAPEUTICS, published 2016) are EC50 values, retold here.

Values joined by “and” are separate entries in the source; they are usually repeats but may differ in a detail not shown here. Equal values may be shown once.

The target of the test is T1, human CXCR5 (human, UniProt P32302 1-372).
T1 construct: whole, on cells; also called hu-CHO; CHO-CXCR5 cells
T1 sequence (looked up): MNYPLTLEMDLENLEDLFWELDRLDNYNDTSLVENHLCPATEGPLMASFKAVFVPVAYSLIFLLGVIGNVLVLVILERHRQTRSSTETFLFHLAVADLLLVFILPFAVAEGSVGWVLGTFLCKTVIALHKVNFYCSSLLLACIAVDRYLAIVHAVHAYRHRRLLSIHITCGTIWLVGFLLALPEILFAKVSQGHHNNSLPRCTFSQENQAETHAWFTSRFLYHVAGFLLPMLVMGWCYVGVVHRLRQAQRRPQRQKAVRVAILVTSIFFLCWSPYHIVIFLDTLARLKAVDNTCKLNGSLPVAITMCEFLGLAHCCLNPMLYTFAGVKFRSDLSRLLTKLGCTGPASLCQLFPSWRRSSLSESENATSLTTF
The test can be described thus: flow cytometry on CHO-CXCR5 cells, IgG titration. The text has this:
This example describes a cellular binding assay to determine the EC₅₀ for anti-CXCR5 antibodies binding to human CXCR5. […] In this example, CHO-CXCR5 cells were lifted from culture flasks using non-enzymatic Cell Dissociation Buffer—PBS based (Life Technologies #13151-014). Cells were resuspended in FACS Buffer (2% Fetal Bovine Serum in PBS) at 1×10⁶ cells/ml and […] were aliquoted into the wells of a 96-well plate. Plated cells were spun down and the supernatant discarded. Cells were resuspended in 30 μl FACS Buffer serially diluted concentrations of CXCR5 IgG in triplicate. Plates were incubated for 1 hr at 4° C. and then washed 2× with FACS Buffer. Cells were resuspended in 50 μl goat anti-human IgG (γ-chain specific)-PE conjugated secondary antibody (Southern Biotech #2040-09) diluted 1:500 in FACS Buffer. Cells were further incubated for 30 min at 4° C. and then washed 1× with FACS Buffer. The cells were resuspended in a final volume of 30 μl FACS Buffer and analyzed using the Intellicyt Flow Cytometer. Median fluorescence in the FL-2H channel was determined using FlowJo software and EC₅₀ value was determined by plotting the data in GraphPad Prism and analyzing using a variable slope non-linear regression.

B1: 14D7 (antibody, V domains shown)
VH: QVQLVQSGGGVVQPGRSLRLSCAASGFTFSSYGMHWVRQAPGKGLEWVAVISYDGSNKYYADSVKGRFTISRDNSKNTLYLQMNSLRAEDTAVYYCAKWGRRGAPDYWGQGTLVTVSS
VL: ETTLTQSPGTLSVSPGERATLSCRASQSVSSNLAWYQQKPGQAPRLLIYGASTRATGIPARFSGSGSGTDFTLTISSLEPEDFAVYYCQQRNNWPLTFGGGTKVEIK
notes: tested as human IgG
In the case of B1, a half-maximal effect (EC50) was put at 4 nM.

B2: 13G9 (antibody, V domains shown)
VH: EVQLVESGGGVVQPGRSLRLSCAASGFTFSRYGMHWVRQSPGKGLEWVAGISYDGSDKYYADSVKGRFTISRANSKNTLFLQMNSLRAEDTAVYYCARARGLDYWGQGTTVTVSS
VL: QAVLTQPASVSGSPGQSITISCTGTSSDIGSYNLVSWYQQHPGKAPKLIIYEVNKRPSGVSNRFSGSKSGNTASLTISGLQAEDEADYYCSSYRSINTVVFGGGTQLTVL
notes: tested as human IgG
For the molecule B2, the EC50 is 3 nM.

B3: 14B11 (antibody, V domains shown)
VH: QVQLVESGGGVVQPGMSLRLSCAASGFTFSSHAMHWVRQAPGKGLEWVAQIWSDGSNRYYSDSVKGRFTISRDQSKNTVSLQMNSLRAEDTAVYFCARDGQSMAPYAMDVWGQGTMVTVSS
VL: DIVMTQTPLSLPVTPGEPASISCRSSQSLLHKNGNNYLDWYLQRPGQSPQLLIYLASNRASGVPDRFSGSGSGTDFTLEISRVQPEDVGVYYCMQGLQTPTFGPGTKVEIK
notes: tested as human IgG
B3: the EC50 was determined as 10 nM.

B4: 52C6 (antibody, V domains shown)
VH: QVQLVESGGGLVQPGGSLRLSCAASGFTFDDYAMHWVRQAPGKGLQWVAVISHDGSAKYYADSVKGRFTISRDNAKNSLYLQMNSLRAEDTAVYYCARSRWGDNWGQGTLVTVSS
VL: SYELMQPASVSGSPGQSITISCTGTSSDVGGYNYVSWYQQHPGKAPKLMIYDVSKRPSGVSNRFSGSKSGNTASLTISGLQAEDEADYYCSSYTSSSTPYVFGTGTKLTVL
notes: tested as human IgG
As for B4, the EC50 was 3 nM and 2.8 nM.

B5: 14F11 (antibody, V domains shown)
VH: EVQLVQSGAEVKKPGASVKVSCKASGSTFTNYYIHWVRQAPGQGLEWMGIINPSGGSIGSPQKFQGRVTMTRDTSTNTVYMELSSLRSEDTAVYYCASRSFGNDGVFDIWGQGTMVTVSS
VL: LPVLTQPRSVSGSPRQSVTISCTGTSSDVGGYNYVSWYQQHPGKAPKLMIYDVSKRPSGVPDRFSGSKSGNTASLTISGLQAEDEAHYYCKSYTTSRTWVFGGGTKLTVL
notes: tested as human IgG
B5 came in with an EC50 of 3.8 nM. That is a single-digit nanomolar value.

B6: 12B11 (antibody, V domains shown)
VH: EVQLVESGGGLVKPGRSLRLSCTASGFPFGDYAMSWFRQAPGKGLEWVALISYDGRNNYYADSVKGRFTISRDNSKNTLYLQMNSLRAEDTAVFYCARDRMRGPGGRFYYYHAMDVWGQGTTVTVSS
VL: SYELMQPPSVSRGLRQTATLTCAGTRNDVGNEGASWLQQHQGHPPKLLSYRDTNRPSGISDRFSASRSGNTASLTISGLQPEDEADYYCSAWDSSLRAWVFGGGTKLTVL
notes: tested as human IgG; also called 14E10
For the molecule B6, the EC50 was 53 nM and 57 nM.

B7: 52A10 (antibody, V domains shown)
VH: QVQLVQSGAEVKKPGASVKVSCKASGYTFTSYGISWVRQAPGQGLEWVGWISAYNGNTNYAQKLQGRVTMTTDTSTSTAYMELRSLRSDDTAVYYCARGSDYWGQGTLVTVSS
VL: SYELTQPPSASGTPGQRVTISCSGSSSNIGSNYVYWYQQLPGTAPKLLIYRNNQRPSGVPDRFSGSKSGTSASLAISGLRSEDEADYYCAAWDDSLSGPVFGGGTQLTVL
notes: tested as human IgG
On to B7, for which the EC50 is 0.5 nM and 0.54 nM.

B8: 16B7 (antibody, V domains shown)
VH: QVQLVESGAEVKKPGASVKVSCKASGYTFTSYYVHWVRQAPGQGLEWMGIINPSGGTTSYAQKFQGRVTMTRDTSTSTVYMELSSLRSEDTAVYYCVRDRRVVAATTPSAFDVWGQGTMVTVSS
VL: QSVVTQPPSVSAAPGQRVTISCSGSTSNIGSNYVSWYHQLPGTAPKLLVYHNDKRPSGIPDRFSGSKSGTSATLGITGLQTGDEADYYCGTWDSSLSVWVFGGGTKVTVL
notes: tested as human IgG
As to B8, the EC50 amounted to 88 nM.

B9: 11D3 (antibody, V domains shown)
VH: QVQLVQSGGGVVQPGRSLRLSCAASGFTFSNFGMHWVRQAPGKGLEWVAVISYDGSNKYYADSVKGRFTISRDNSKNTLYLQMNSLRAEDTAVYYCARNTVTYHDVWGQGTTVTVSS
VL: QPVLTQPASVSGSPGQSITISCTGTSSDVGGYNYVSWYQQHPGKAPKLMINDVSNRPSGVSSRFSGSKSGNTASLTISGLQAEDEADYYCSSYTSSSTLVFGGGTKLTVL
notes: tested as human IgG
In turn, B9 displayed an EC50 of 2.7 nM.

B10: 14C11 (antibody, V domains shown)
VH: QVQLQQSGPGLVKPSQTLSLTCAISGDTVSTNRAAWYWIRQSPSRGLEWLGRTHYRSRWLNDYAPSVKSRITINPDTSKNQFSLQLNSVTPEDTAVYYCARGAAGRAFDIWGQGTLVTVSS
VL: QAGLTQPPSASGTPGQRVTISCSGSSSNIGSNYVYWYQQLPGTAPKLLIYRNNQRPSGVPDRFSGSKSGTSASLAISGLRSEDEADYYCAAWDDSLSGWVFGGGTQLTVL
notes: tested as human IgG
Molecule B10 came in with an EC50 of 21 nM.

B11: 16A8 (antibody, V domains shown)
VH: QVQLVESGGGVVQPGRSLRLSCAASGFTFSNYGMHWVRQAPGKGLEWVATISYDGSNNYYAASVKGRFTVSRDNSTLYLQMNSLRAEDTAVYYCAGAIAAAGVWGQGTLVTVSS
VL: LPVLTQPASVSGSPGQSITISCTGTSSDVGGYNYVSWYQQHPGKAPKLMIYDVSNRPSGVSDRFSGSKSGNTASLNISGLQPDDEAEYYCSSYRTKNTLVFGGGTKLTVL
notes: tested as human IgG
In the case of B11, the EC50 worked out at 2.3 nM.

B12: 14D9 (antibody, V domains shown)
VH: EVQLVESGGGVVQPGRSLRLSCAASGFTFSSYAMHWVRQAPGKGLEWVAVISYDGSNKYYADSVKGRFTISRDNSKNTLYLQMNSLRAEDTAVYYCARSAWLDSWGQGTLVTVSS
VL: QAGLTQPHSVSGSPGQSVTISCTGTSSDVGSYNHVSWYQQHPGKAPKLMIYDVSKRPSGVSNRFSGSKSGNTASLTISGLQAEDEADYYCSSYTSSSTYVFGTGTKVTVL
notes: tested as human IgG
With B12, a half-maximal response (EC50) required 22 nM.

B13: 16E3 (antibody, V domains shown)
VH: QVQLVESGGGVVQPGRSLRLSCAASGFTFSSNGMHWVRQAPGKGLEWVAAISYNGRNQYYADSLKGRFTISRDNSKNSLYLQMNSLRAEDTAVYYCATPAATLDYWGQGTLVTVSS
VL: QSVLTQPASVSGSPGQSITISCTGTSSDVGGYNYVSWYQHHPGKAPKLMIYDVTYRPSGVSNRFSGSKSGNTASLTISGLQAEDEADYYCSSYTSSSTLVFGTGTKVTVL
notes: tested as human IgG
As for B13, the EC50 is 250 nM.

B14: 11F3 (antibody, V domains shown)
VH: QVQLVESGGGVVQPGRSLRLYCAASGFIFSSYAIHWVRQAPGKGLEWVAVISYDGSKKYYADSVEGRFTISRDNSKNSLYLQMNSLRVDDTAVYYCAAHRQLGYWGQGTLVTVSS
VL: QSVLTQPPSASGSPGQSVTISCTGTSSDVGGYNYVSWYQQHPGKAPKLMIYDVSKRPSGVSNRFSGSKSGNTASLTISGLQAEDEADYYCSSYTSSSTLVFGGGTKLTVL
notes: tested as human IgG
For B14, the EC50 came to 13 nM.

B15: 15H2 (antibody, V domains shown)
VH: EVQLVESGGGVVQPGRSLRLSCAASGFTFSSYAMHWVRQAPGKGLEWVAVISYDGSKKYYADSVKGRFTISRDNSKNTLYLQMNSLRAEDTAVYYCARVGIAAAVGMDVWGQGTTVTVSS
VL: DIVMTQTPLSLPVTLGQPASISCRSSQSLVYRDGNTYLNWFQQRPGQSPRRLIYKVSNRDSGVPDRFSGSGSGTDFTLKISRVEAEDVGVYYCMQGTHWPLTFGQGTKVEI
notes: tested as human IgG; 181/182 '15H2' while the text calls the same pair '15H12'; also called 15H12
The molecule B15 had an EC50 of 6.1 nM.

B16: 52B10 (antibody, V domains shown)
VH: EVQLLESGGGLVQPGGSLRLSCAGSESTFGDSWLNWVRQAPGKGLEWVANINKDGSKKEYVESVKGRFTISRDNAKKSVYLQMNSLRVEDTAVYYCLLKGVWGQGTLVTVSS
VL: AIQLTQSPSFLSASVGDRVTITCRASQGISSYLAWYQQKPGKAPKLLIYAASTLQSGVPSRFSGSGSGTEFTLTISSLQPEDFATYYCQQLNSYPITFGPGTKVDIK
notes: tested as human IgG
Turning to B16, the EC50 is 0.5 nM and 0.46 nM.

As a reminder, the EC50 is the concentration giving half of the maximal effect.
